Key:
Assay in all cases: FRET or BRET
mCerulean3-BCL-2 (human) = mCerulean3-BCL-2 (human) (UniProt P10415)
mCerulean3-BCL-W (mouse) = mCerulean3-BCL-W (mouse) (UniProt P70345)
[1] = biological target: mCerulean3-BCL-XL (human) (UniProt Q07817)
Chain of mCerulean3-BCL-XL (human) (Q07817 whole entry): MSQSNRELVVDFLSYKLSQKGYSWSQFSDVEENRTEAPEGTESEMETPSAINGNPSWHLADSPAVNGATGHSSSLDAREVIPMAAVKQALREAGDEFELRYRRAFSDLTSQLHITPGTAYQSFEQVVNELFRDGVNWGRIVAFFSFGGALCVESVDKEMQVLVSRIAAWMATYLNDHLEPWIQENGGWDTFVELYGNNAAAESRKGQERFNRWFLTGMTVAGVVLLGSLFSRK

Chain of mCerulean3-BCL-W (mouse) (P70345 whole entry): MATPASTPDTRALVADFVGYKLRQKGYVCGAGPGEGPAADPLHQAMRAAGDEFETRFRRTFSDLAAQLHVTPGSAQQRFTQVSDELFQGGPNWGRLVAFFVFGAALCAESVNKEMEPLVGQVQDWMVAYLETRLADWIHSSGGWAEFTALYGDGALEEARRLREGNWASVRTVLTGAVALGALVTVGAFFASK
Chain of mCerulean3-BCL-2 (human) (P10415 whole entry): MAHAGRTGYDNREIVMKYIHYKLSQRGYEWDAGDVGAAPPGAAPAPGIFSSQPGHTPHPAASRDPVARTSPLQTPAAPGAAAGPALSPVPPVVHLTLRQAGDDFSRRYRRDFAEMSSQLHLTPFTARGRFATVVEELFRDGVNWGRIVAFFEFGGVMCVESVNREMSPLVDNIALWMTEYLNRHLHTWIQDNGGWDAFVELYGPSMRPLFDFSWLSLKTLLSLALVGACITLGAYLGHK

Venus-tBID (natural protein)
Kd (mCerulean3-BCL-2 (human)): 3 µM | Kd (mCerulean3-BCL-W (mouse)): 6 µM | Kd [1]: 5 µM

Reference: PMC9020777
